One data set concerns the target T1, TAMRA-labelled Aβ1-42 (UniProt P05067 672-713, TAMRA label (position not given)).
T1 construct: domain: Aβ1-42; also called TAMRA-Aβ1-42; TAMRA-Aβ
The experiment in a line: flow cytometry of supernatants of immunostimulated primary microglia incubated with Aβ1-42. As to the method:
Supernatants containing ASC specks were subsequently incubated with Aβ₁₋₄₂ for 6 h and thereafter analyzed by flow cytometry. (b) Upper panel: Immunoprecipitation and immunoblot detection of ASC in unstimulated, immunoactivated wildtype (wt) and ASC knockout (ASC^{-/-}) macrophages. ASC monomer detection is restricted to supernatants of immunoactivated, ASC-competent wt cells and absent in unstimulated wt cells or ASC^{-/-} macrophages. Lower panel: Immunoprecipitation of ASC followed by immunoblot detection of Aβ under the same experimental conditions as described for the upper panel. ASC bound Aβ is exclusively detected in supernatants derived from immunoactivated wt macrophages but not from unstimulated wt or ASC^{-/-} cells. (c) Upper panel: Immunoprecipitation of ASC and immunoblot detection of ASC in unstimulated, immunoactivated wt and ASC^{-/-} microglia. ASC monomer detection is restricted to supernatants of immunoactivated ASC competent wt cells and absent in unstimulated wt cells or ASC^{-/-} macrophages. […] ASC bound Aβ is exclusively detected in supernatants derived from immunoactivated wt microglia but not from unstimulated wt or ASC^{-/-} cells. […] (f) Flow cytometry quantification of ASC-TAMRA-labelled […] after immunostimulation of microglia. […]
A general note: Flow cytometry measures light scatter and fluorescence of single cells or particles in a stream.

Data set [1] deals with the molecule itself. Kind of data set: immunoblot for ASC over incubation time (self-association). A general note: A western blot detects proteins with antibodies after separation by electrophoresis.

T1 sequence (P05067 672-713 limits assumed): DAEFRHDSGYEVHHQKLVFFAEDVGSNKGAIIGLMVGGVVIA

B1: ASC specks released by immunostimulated wild-type primary murine microglia or murine macrophages (other, UniProt Q9EPB4 1-193, looked up)
chain: MGRARDAILDALENLSGDELKKFKMKLLTVQLREGYGRIPRGALLQMDAIDLTDKLVSYYLESYGLELTMTVLRDMGLQELAEQLQTTKEESGAVAAAASVPAQSTARTGHFVDQHRQALIARVTEVDGVLDALHGSVLTEGQYQAVRAETTSQDKMRKLFSFVPSWNLTCKDSLLQALKEIHPYLVMDLEQS
notes: Endogenous protein in cell-free supernatants; aggregated (speck) form; also called Microglia released ASC specks
As to B1, the binding result with TAMRA-labelled Aβ1-42 was “binds”.

B2: recombinant mutant ASC specks (recASC; K21A, K22A and K26A) in the ASC-PYD domain (other)
chain: MGRARDAILDALENLTAEELAAFKLALLSVPLREGYGRIPRGALLSMDALDLTDKLVSFYLETYGAELTANVLRDMGLQEMAGQLQAATHQGSGAAPAGIQAPPQSAAKPGLHFIDQHRAALIARVTNVEWLLDALYGKVLTDEQYQAVRAEPTNPSKMRKLFSFTPAWNWTCKDLLLQALRESQSYLVEDLERS
notes: Made and prepared as the wild-type recombinant protein; also called recASC K21A, K22A, K26A; ASC-PYD mutant; not shown: TEV protease cleavage site; mCherry; C-terminal hexa-histidine tag from pET-23a
Turning to B2, in data set [1], the binding result is recorded as “no binding”.

The record behind these values is patent publication US20200339670A1 (published 2020).
